Test results as given in patent US8981056.

Target: Aspergillus terreus LOVF Polyketide Synthase

B1: LovD G7 mutant (protein)
chain: MGSIIDAAAAAGPVVLMETAFRKAVESRQIPGAVIMARDASGNLNYTRCFGARTVRRDENNQLPPLQVDTPCRLASATKLLTTIMVLQCMERGLVDLDETVDRLLPDLSAMPVLEGFDDAGNARLRERRGKITLRHLLTHTSGLSYVFLHPLLREYMAQGYLQSAEKFGIQSRLAPPAVNDPGAEWIYGTNLDWAGKLVERATGLDLEQYLQENICAPLGITDMTFKLQQRPDMLARRADQTHRNSADGRLRYDDSVYFRADGEECFGGQGVFSSPGSYMKVLHSLLKRDGLLLQPQTVDLMFQPALEPRLEEQMNQHMDASPHINYGGPMPMFLRRSFGLGGIIALEDLDGENWRRKGSLTFGGGPNIVWQIDPKAGLCTLAFFQLEPWNDPVCRDLTRTFEHAIYAQYQQG
activities towards LovF (kinetic assay for LVA synthesis with LovF as acyl donor): The G7 mutant exhibited a 27-fold decrease in activities towards LovF compared to the G0 parent
